These results are taken from paper PMC13065467, “Assembly and phosphoregulatory mechanisms of the budding yeast outer kinetochore KMN complex” (The Journal of Cell Biology, 2026).

Ends that are not written are not given here.

For experiment [1], the target named is Knl1c:Mis12c^Mtw1c complex K^HB-RWDM^2E (full-length Dsn1 with S240E and S250E phosphomimetic mutations), P53148;Q04431;P40568;P39731;P47149;Q12143. As to the kind of experiment: ITC. The following applies: Syringe: CENP-U^Ame1_1-33-Mut (0.32 mM); Cell: K^HB-RWDM^2E (0.016 mM); parent: 1.35 ± 0.08.
For experiment [2], the system named is T1, K^HB-RWDM^Dsn1Δ257 (Knl1c:Mis12c^Mtw1c complex, Knl1^Spc105 residues 1–444 and Dsn1 residues 1–257 deleted).
T1 construct: made in house; host or cells: High-5 insect cells (baculovirus)
As to the kind of experiment: ITC, Dsn1 peptide titrated into K^HB-RWDM^Dsn1Δ257. Type of experiment: binding, S. cerevisiae. How it is done: Dsn1^228–254 and Dsn1^228–254,S240E,S250E peptides were synthesized by Alta BioScience with N-terminal acetylation and C-terminal GSAW extension and amidation. The final sequence of Dsn1^228–254 was […], and Dsn1^228–254,S240E,S250E was […]. All protein complexes and peptides used in a given experiment were dialyzed for a minimum of 16 h and/or buffer-exchanged by size-exclusion chromatography into the same batch of ITC buffer (25 mM HEPES, pH 7.5, 100 mM NaCl, 1 mM TCEP). All experiments were performed using an Auto-iTC200 instrument (Malvern Instruments) at 25°C. In each experiment, 360 μl of protein complex was pipetted into the calorimeter cell. The protein complex loaded into the calorimeter cell contained Knl1c:Mis12c^Mtw1c with Knl1^Spc105_HB-RWD and Dsn1^Δ1–257 and either wild-type Mis12^Mtw1 (K^HB-RWDM ^Dsn1Δ257) or Mis12^Mtw1_E69A,E73A,E77A mutant (K^HB-RWDM ^Dsn1Δ257_Mis12-3A). Wild-type constructs of all other Knl1c and Mis12c^Mtw1c subunits were included. Titration of either the Dsn1^228–254 or Dsn1^228-254,S240E,S250E peptide into the cell was then performed by an initial injection of 0.5 μl, followed by 19 further injections of 2.0 μl each. […] Titrations were performed in duplicate or triplicate, and reported KD and n values were calculated as an average from all replicate results.

For experiment [3], the target named is KlMis12c^Mtw1c with phosphomimetic mutations of Dsn1^AI. The following applies: fluorescence polarization; K. lactis complex with phosphomimetic mutations (Asp mutants of S213/S223); ref Dimitrova et al., 2016; cited from earlier work. From the text:
We further investigated the effect of Dsn1^AI on the interaction between K^HB-RWDM (which has wild-type unphosphorylated Dsn1^AI) and a peptide modeled on the N-terminal 38 residues of CENP-C^Mif2 (CENP-C^Mif2_1–38). […] Also similar to Dimitrova et al. (2016), using ITC we found no binding of CENP-UAme1_1-33 to the unphosphorylated KM. […] We cannot accoun ... || (+ 2 further places)

The test system of experiment [4] is KlMis12c^Mtw1c containing an intact Dsn1^AI. The note with it: lower concentrations (50 nM) for CENP-U^Ame1, unphosphorylated complex, ref Dimitrova et al., 2016; cited from earlier work.
The target in experiment [5] is T2, Knl1c:Mis12c^Mtw1c complex K^HB-RWDM^2E (full-length Dsn1 with S240E and S250E phosphomimetic mutations) (S. cerevisiae, UniProt P53148 445-917; Q04431 1-385; P40568 1-576; P39731 1-289; P47149 1-201; Q12143 …, S240E | S250E).
T2 construct: Knl1^Spc105_HB-RWD: Knl1^Spc105, S. cerevisiae S288c, residues 445-917; ZWINT^Kre28, S. cerevisiae S288c; no truncation stated; Dsn1^S240E,S250E: full-length Dsn1, S. cerevisiae S288c, with phosphomimetic mutations; Mis12^Mtw1, S. cerevisiae S288c; Nnf1, S. cerevisiae S288c; Nsl1, S. cerevisiae S288c; also called KM^2E; K^HB-RWDM^S240E,S250E; source: High-5 insect cells (baculovirus), purified …
As to the kind of experiment: ITC; peptide titrated into the complex in the cell; 20°C; 25 mM HEPES pH 7.5, 100 mM NaCl, 0.5 mM TCEP. The following applies: both partners purified.

For experiment [6], the target named is T3, S. cerevisiae Ndc80 complex (Ndc80, Nuf2, Spc24, Spc25) (S. cerevisiae, UniProt P40460 1-691; P33895 1-451; Q04477 1-213; P40014 1-221).
T3 construct: Ndc80, S. cerevisiae S288c; Nuf2, S. cerevisiae S288c; Spc24, S. cerevisiae S288c; Spc25, S. cerevisiae S288c; The Twin-Strep tag on Nuf2 is TEV cleavable; no cleavage is described; source: High-5 insect cells (two baculoviruses), purified (Strep-Tactin, Resource Q, SEC); copies: + + +
As to the kind of experiment: SEC; 4 μM Mis12c^Mtw1c (wild type or mutant) mixed with 4 μM Ndc80c in KMN buffer, 30 min on ice; Superose 6 3.2/300; fractions on SDS-PAGE. The note with it: both partners purified.

T2 sequence (P53148 445-917, chain 1 of 2): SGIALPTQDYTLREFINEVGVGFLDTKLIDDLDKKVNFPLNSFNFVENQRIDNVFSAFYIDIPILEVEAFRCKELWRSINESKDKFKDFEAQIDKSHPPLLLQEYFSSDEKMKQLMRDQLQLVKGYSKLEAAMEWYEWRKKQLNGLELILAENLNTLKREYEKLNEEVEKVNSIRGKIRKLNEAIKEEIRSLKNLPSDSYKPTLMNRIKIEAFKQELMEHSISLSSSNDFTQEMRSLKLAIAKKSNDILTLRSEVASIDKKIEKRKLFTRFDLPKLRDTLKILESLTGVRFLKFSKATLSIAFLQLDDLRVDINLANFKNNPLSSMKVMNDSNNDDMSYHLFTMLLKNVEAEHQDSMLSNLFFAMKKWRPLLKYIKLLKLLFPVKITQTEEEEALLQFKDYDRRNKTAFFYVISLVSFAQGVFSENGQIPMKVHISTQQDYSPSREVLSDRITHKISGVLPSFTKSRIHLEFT
T2 sequence (Q04431 whole entry, chain 2 of 2, the tested form may be a part): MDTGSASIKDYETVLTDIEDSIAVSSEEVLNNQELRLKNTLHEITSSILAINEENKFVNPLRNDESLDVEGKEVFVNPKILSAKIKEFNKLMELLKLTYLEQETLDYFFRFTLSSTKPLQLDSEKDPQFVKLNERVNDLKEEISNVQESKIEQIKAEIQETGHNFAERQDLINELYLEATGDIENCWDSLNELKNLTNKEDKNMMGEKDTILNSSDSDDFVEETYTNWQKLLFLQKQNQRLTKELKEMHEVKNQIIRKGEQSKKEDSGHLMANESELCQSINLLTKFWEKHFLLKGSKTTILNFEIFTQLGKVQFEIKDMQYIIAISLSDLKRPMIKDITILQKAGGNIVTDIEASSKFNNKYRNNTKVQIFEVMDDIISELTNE
T3 sequence (P40460 whole entry, chain 1 of 4): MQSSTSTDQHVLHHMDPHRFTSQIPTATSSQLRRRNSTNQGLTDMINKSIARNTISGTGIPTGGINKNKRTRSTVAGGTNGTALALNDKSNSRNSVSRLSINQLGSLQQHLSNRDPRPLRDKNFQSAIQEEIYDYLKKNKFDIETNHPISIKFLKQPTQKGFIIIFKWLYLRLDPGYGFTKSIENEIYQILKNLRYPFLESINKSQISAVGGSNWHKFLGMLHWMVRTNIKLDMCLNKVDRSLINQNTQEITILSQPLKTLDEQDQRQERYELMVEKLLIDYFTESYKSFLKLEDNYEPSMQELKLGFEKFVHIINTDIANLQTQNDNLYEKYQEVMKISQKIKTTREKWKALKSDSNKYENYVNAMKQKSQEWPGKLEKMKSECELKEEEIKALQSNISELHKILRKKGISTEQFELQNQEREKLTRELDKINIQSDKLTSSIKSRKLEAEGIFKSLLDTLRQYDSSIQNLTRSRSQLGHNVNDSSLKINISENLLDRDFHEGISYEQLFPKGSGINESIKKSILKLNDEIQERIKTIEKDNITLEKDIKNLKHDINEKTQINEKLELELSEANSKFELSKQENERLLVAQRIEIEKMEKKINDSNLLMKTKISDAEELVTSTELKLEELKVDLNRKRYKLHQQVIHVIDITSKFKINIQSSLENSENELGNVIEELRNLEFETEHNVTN
T3 sequence (P33895 whole entry, chain 2 of 4): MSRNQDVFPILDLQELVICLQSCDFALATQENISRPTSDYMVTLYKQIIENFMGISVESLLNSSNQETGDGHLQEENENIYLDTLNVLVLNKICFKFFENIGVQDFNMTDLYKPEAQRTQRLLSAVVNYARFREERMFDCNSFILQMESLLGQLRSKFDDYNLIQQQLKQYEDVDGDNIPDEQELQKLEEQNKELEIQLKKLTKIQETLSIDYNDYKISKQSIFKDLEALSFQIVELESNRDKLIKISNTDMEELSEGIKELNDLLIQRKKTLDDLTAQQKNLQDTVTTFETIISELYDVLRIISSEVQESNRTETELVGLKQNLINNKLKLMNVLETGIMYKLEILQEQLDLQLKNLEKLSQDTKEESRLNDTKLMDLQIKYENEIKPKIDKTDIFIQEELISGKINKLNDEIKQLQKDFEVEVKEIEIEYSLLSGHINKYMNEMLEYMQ
T3 sequence (Q04477 whole entry, chain 3 of 4): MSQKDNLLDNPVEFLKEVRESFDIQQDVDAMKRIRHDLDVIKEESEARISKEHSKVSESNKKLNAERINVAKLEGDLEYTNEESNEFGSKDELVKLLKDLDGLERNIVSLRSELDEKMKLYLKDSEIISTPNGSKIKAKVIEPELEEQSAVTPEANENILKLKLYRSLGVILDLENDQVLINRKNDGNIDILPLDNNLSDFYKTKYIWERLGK
T3 sequence (P40014 whole entry, chain 4 of 4): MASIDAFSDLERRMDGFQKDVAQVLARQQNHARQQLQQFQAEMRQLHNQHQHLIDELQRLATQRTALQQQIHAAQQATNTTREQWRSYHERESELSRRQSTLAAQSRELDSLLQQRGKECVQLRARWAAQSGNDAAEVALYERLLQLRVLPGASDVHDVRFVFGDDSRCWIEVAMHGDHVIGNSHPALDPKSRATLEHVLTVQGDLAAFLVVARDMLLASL
T1 sequence (Q04431 whole entry, stated change not applied, one chain of several, further chain, the tested form may be a part): as the sequence (Q04431 whole entry, chain 2 of 2, the tested form may be a part) above
T1 sequence (P53148 445-917, stated change not applied, one chain of several, further chain): as the sequence (P53148 445-917, chain 1 of 2) above

On to “CENP-U^Ame1_1–33 peptide (residues 1–33 of CENP-U^Ame1) D25A; V27A; I28A; F29A; T31A”, for which the other: N (ITC stoichiometry) in experiment [1] amounted to 1.34.

As to “Ac-PHYIQRTRERKKEIGSQRGRRLEMLASGSAW-NH2 [Dsn1^228-254,S240E,S250E]”, the “decrease of affinity versus wild-type peptide” value in experiment [2] (ratio of ITC KD values, S240E,S250E peptide versus wild-type Dsn1^228–254) is given as “fivefold”. Further, in experiment [2] (read-out: KD (ITC) of phosphomimetic Dsn1 peptide, ITC, 25°C, 25 mM HEPES pH 7.5, 100 mM NaCl, 1 mM TCEP, syringe 0.35 mM, cell 0.025 mM, average from two experiments (technical repeats)), the Kd came out at 6000 nM. “K. lactis CENP-U^Ame1_1-25: residues 1–25 of K. lactis CENP-U^Ame1, reported by Dimitrova et al., 2016 (MDALKQRHLKLLYRQRGSASRTIDY; UniProt Q6CUE5 1-25, looked up, fragment)”: the Kd in experiment [3] is 1480 nM. Further, the “binding (fluorescence polarization)” value in experiment [4] is reported as “did not interact”. In the case of “CENP-C^Mif2_1-41: CENP-C^Mif2 peptide (residues 1-41) reported by Dimitrova et al., 2016 (MDYMKLGLKSRKTGIDVKQDIPKDEYSMENIDDFFKDDETS; UniProt P35201 1-41, looked up, fragment)”, in experiment [3], the Kd was 1750 nM. For the same molecule, in experiment [4], the “binding (fluorescence polarization)” value is recorded as “no binding”.

B1: CENP-C^Mif2_1–38 peptide (N-terminal 38 residues of CENP-C^Mif2) (peptide)
peptide: MDYMKLGLKSRKTGIDVKQDIPKDEYSMENIDDFFKDD-NH2
notes: CENP-C^Mif2, S. cerevisiae, residues 1-38; source: synthetic peptide (Alta BioScience)
In experiment [5], B1 gave a Kd of 980 nM.

B2: CENP-U^Ame1_1-33-Mut peptide (CENP-U^Ame1_1-33 with Ala substitutions) (peptide)
peptide: MDRDTKLAFRLRGSHSRRTDDIDDAAAVAKAPNW-NH2
notes: CENP-U^Ame1, S. cerevisiae, residues 1-33 with five Ala substitutions; added C-terminal tryptophan after residue 33 (so in the source); also called CENP-U^Ame1_1-33 mutant; source: synthetic peptide (Alta BioScience)
With B2, the affinity in experiment [5], expressed as Kd, was 1310 nM.

B3: CENP-U^Ame1_1–33 peptide (residues 1–33 of CENP-U^Ame1) (peptide)
peptide: MDRDTKLAFRLRGSHSRRTDDIDDDVIVFKTPNW-NH2
notes: CENP-U^Ame1, S. cerevisiae, residues 1-33; added C-terminal tryptophan after residue 33 (so in the source); source: synthetic peptide (Alta BioScience)
Regarding B3, in experiment [5], the affinity, expressed as Kd, was 240 nM.

B4: Isolated Mis12c^Mtw1c, full-length and wild-type proteins (Dsn1, Nsl1, Mis12^Mtw1, Nnf1) (complex, S. cerevisiae)
chain 1: MSLEPTQTVSGTPPMLHQRTHKQVYPLRMETIPILESDSKATLQSNEPTQKDEEETEYFENKQSVSNLSPDLKFKRHKNKHIQGFPTLGERLDNLQDIKKAKRVENFNSSAPIADDNHSGDATANATANATANATANVNASAMPAPYMPYYYYYHPMNAPTPAMIPYPGSPMHSIMPNSSLQPFYSQPTAAGGPDMTTPQNISSSQQLLPAPQLFPYGSFHQQQLQQPHYIQRTRERKKSIGSQRGRRLSMLASQANGGSTIISPHKDIPEEDFYTVVGNASFGKNLQIRQLFNWCLMRSLHKLELKAKNQEEEGELEHLTKKSKLESTKAETDYVDPKRLAMVIIKEFVDDLKKDHIAIDWEDEEKYEDEDEEKILDNTENYDDTELRQLFQENDDDDDDDDEVDYSEIQRSRRKFSERRKALPKEPKKLLPNSKNVENTKNLSILTSKVNAIKNEVKEWAVTLDTSRPDLEWQELTSFSSQPLEPLSDTEEPDLAIADVETKLETKVDELRYQSHILNSHSLALNEITNSKVNKLNIETMRKISSETDDDHSQVINPQQLLKGLSLSFSKKLDL
chain 2: MSQGQSKKLDVTVEQLRSIYHQFHDILEEKTDLHLPKKEYDDDAVRREVQIQLQEFLLSAMTMASKSLEVVNADTVGKTVKQLIMESQEKYMEPFDLDLNEQVRKMYQEWEDETVKVAQLRQTGPAKINEVYNNSKDEYLAQLDGRIGVLQARMMQQQSADHDDSTDDADDHINWEHIKQDYVASLNELYQTQQDLPKVRYNVEKVKRLMDFLEED
chain 3: MSAPTMRSTSILTEHLGYPPISLVDDIINAVNEIMYKCTAAMEKYLLSKSKIGEEDYGEEIKSGVAKLESLLENSVDKNFDKLELYVLRNVLRIPEEYLDANVFRLENQKDLVIVDENELKKSEEKLREKVNDVELAFKKNEMLLKRVTKVKRLLFTIRGFKQKLNELLKCKDDVQLQKILESLKPIDDTMTLLTDSLRKLYVDSESTSSTEEVEALLQRLKTNGKQNNKDFRTRYIDIRTNNVLRKLGLLGDKEDEKQSAKPDARTQAGDIVSIDIEEPQLDLLDDVL
chain 4: MVNSHGIRYIRLKQVFNRALDQSISKLQSWDKVSSCFPQYVNSKQGAINVANCQRQLTEFWTELCQREFKEIMEERNVEQKLNELDELILEAKERYTDRDQDEVNKGPAIDELSSKELVECHLYSQRMHAIHEIDERLAKVNEMNDQLAQELKDLETQVEVEKNEIGKMYDEYLGSHTDQPANVLLVQSLNDMVLELKENY
notes: Dsn1, S. cerevisiae S288c; Nsl1, S. cerevisiae S288c; Mis12^Mtw1, S. cerevisiae S288c; Nnf1, S. cerevisiae S288c; source: High-5 insect cells (two baculoviruses), purified (Strep-Tactin, SEC); copies: + + +
Consider B4, for which the binding result in experiment [6] was “binds”.

B5: Mis12c^Mtw1c_Nnf1ΔC (isolated Mis12c^Mtw1c with Nnf1 residues 180–201 deleted) (complex, S. cerevisiae)
chain 1: B4 chain 1
chain 2: B4 chain 2
chain 3: B4 chain 3
chain 4: MVNSHGIRYIRLKQVFNRALDQSISKLQSWDKVSSCFPQYVNSKQGAINVANCQRQLTEFWTELCQREFKEIMEERNVEQKLNELDELILEAKERYTDRDQDEVNKGPAIDELSSKELVECHLYSQRMHAIHEIDERLAKVNEMNDQLAQELKDLETQVEVEKNEIGKMYDEYLGSHTD
notes: Dsn1, S. cerevisiae S288c; Nsl1, S. cerevisiae S288c; Mis12^Mtw1, S. cerevisiae S288c; Nnf1^Δ180-C: Nnf1, S. cerevisiae S288c, residues 180-201 deleted; also called Nnf1^Δ180-C; source: High-5 insect cells (two baculoviruses), purified (Strep-Tactin, SEC); copies: + + +
As for B5, the binding result in experiment [6] is reported as “binds”.

B6: Mis12c^Mtw1c_Mis12ΔC (isolated Mis12c^Mtw1c with Mis12^Mtw1 residues 272–289 deleted) (complex, S. cerevisiae)
chain 1: B4 chain 1
chain 2: B4 chain 2
chain 3: MSAPTMRSTSILTEHLGYPPISLVDDIINAVNEIMYKCTAAMEKYLLSKSKIGEEDYGEEIKSGVAKLESLLENSVDKNFDKLELYVLRNVLRIPEEYLDANVFRLENQKDLVIVDENELKKSEEKLREKVNDVELAFKKNEMLLKRVTKVKRLLFTIRGFKQKLNELLKCKDDVQLQKILESLKPIDDTMTLLTDSLRKLYVDSESTSSTEEVEALLQRLKTNGKQNNKDFRTRYIDIRTNNVLRKLGLLGDKEDEKQSAKPDARTQAGD
chain 4: B4 chain 4
notes: Dsn1, S. cerevisiae S288c; Nsl1, S. cerevisiae S288c; Nnf1, S. cerevisiae S288c; also called Mis12^Mtw1_Δ272-C; source: High-5 insect cells (two baculoviruses), purified (Strep-Tactin, SEC); copies: + + +
With B6, the binding result in experiment [6] is “binds”.

B7: Mis12c^Mtw1c_Mis12ΔC-Nnf1ΔC (isolated Mis12c^Mtw1c with Mis12^Mtw1 residues 272–289 and Nnf1 residues 180–201 deleted) (complex, S. cerevisiae)
chain 1: B4 chain 1
chain 2: B4 chain 2
chain 3: B6 chain 3
chain 4: B5 chain 4
notes: Dsn1, S. cerevisiae S288c; Nsl1, S. cerevisiae S288c; Nnf1^Δ180-C: Nnf1, S. cerevisiae S288c, residues 180-201 deleted; source: High-5 insect cells (two baculoviruses), purified (Strep-Tactin, SEC); copies: + + +
As for B7, in experiment [6], the binding result is recorded as “binds”.
